Results from patent US7939292B2, “Modified heparinase III and methods of sequencing therewith” (Massachusetts Institute of Technology, priority 2000, dated 2011).

Columns and labels:
Erk-1, 2 = test: Total and phosphorylated Erk-1, 2 in heparinase-treated B16BL6 tumor; design: species or system mice; conditions: mouse, in vivo
Protocol: e. Level of total and phosphorylated Erk-1, 2 in heparinase-treated B16BL6 tumor. Tumor homogenates were prepared and processed as described in c. The supernatant was used for total protein concentration assay and immunoblotting. The immunoblot was detected as described in a.

[1] = system: Lewis lung carcinoma (LLC) tumors; test: Primary tumor growth of Lewis lung carcinoma (LLC) in mice; assay type: in vivo; conditions: 12 mg/kg per day
Protocol: To ensure that these observations were not limited to the tumor model chosen, hep III was used to treat mice bearing Lewis lung carcinoma (LLC) tumors. Growth curves of primary tumor growth for LLC tumor in C57BL/6 mice treated with either PBS or heparinase III were plotted. 4×10^5 log phase LLC cells were injected subcutaneously to the flank of mice on day 1. Daily injection of 0.1 ml of either PBS or 2 mg/ml recombinantly expressed heparinase III started at the day 4 and continued throughout the experiment. At day 8, osmotic pumps (100 μl capacity delivering at 0.5 μl per hour) containing PBS or 3 mg/ml hep III were implanted subcutaneously at a place remote from the tumor site. Mice were sacrificed at day 20. Lung metastasis of LLC cells injected through tail vein were quantitated as number of lung nodules. Log growth LLC cells were trypsinized for 30 seconds and resuspended in PBS to a final concentration of 1×10^6 per ml. For experimental group, cells were incubated with […] hep III for 30 minutes at 37° C. before injecting 0.2 ml of cell suspension via tail vein. Mice were euthanized 12 days after tail vein injections, lungs were harvested, rinsed in tap water and fixed overnight in Bouin's solution. The number of nodules on lung surface was counted with the aid of a dissection microscope.

FGFR1 = FGFR1 phosphorylation in B16BL6 tumor samples; design: species or system mice; conditions: mouse, in vivo
Protocol: c. Effect of treatment of tumor with hep I and hep III in FGFR1 activation compared to PBS. Level of phosphorylated FGFR1 in tumor samples was assessed by standard immunoprecipitation followed by Westernblotting with phosphotyrosine specific antibody. Primary B16BL6 tumors were grown and treated as described earlier and at day 15 the tumor was harvested in cold modified RIPA buffer containing enzyme inhibitors and homogenized. The homogenates were past through 25-gauge needle 3 times and centrifuged. The supernatant was adjusted for protein concentration using the Bio-Rad protein assay kit (Bio-Rad). FGFR1 was immunoprecipitated with poly-clonal anti-FGFR1 antibody (Santa Cruz Biotechnology, Inc., CA). Samples were then pelleted, washed, and eluted from the beads by addition of sample buffer and boiled for 3 minutes (Kapila, Y. L., Wang, S. & Johnson, P. W. Mutations in the heparin binding domain of fibronectin in cooperation with the V region induce decreases in pp125(FAK) levels plus proteoglycan-mediated apoptosis via caspases. J Biol Chem 274, 30906-13 (1999).). After electrophoresis, the gel was transferred to nitrocellulose membrane by standard methods. The immunoblot was probed with phosphotyrosine specific antibody conjugated to HRP (RC20; Transduction Laboratories, Lexington, Ky.) and developed with SuperSignal West Pico Chemiluminescent substrate. […]

B16BL6 melanoma [2] = test: Histological examination of tumor samples (apoptosis, TdT labeling); assay type: in vivo, mice
Protocol: Immunohistochemistry was done as described (Parangi et al., 1996; O'Reilly et al., 1994) with minor modifications. Briefly, tumor tissues were fixed in either 4% (vol/vol) formaldehyde overnight for von Willebrand factor (vWF) staining and terminal deoxynucleotide transferase (TdT) labeling or in Glyo-Fixx solution overnight for Ki-67 nuclear antigen staining. Tissues were embedded in paraffin according to standard histological procedures. For vWF staining, sections (5 μm thick) were incubated with 0.2 N HCl for 10 min. autoclaved in a Coplin jar immersed with Target retrieval Solution (Dako) for 15 min. and permeabilized with 2 μg/ml proteinase K at 37° C. for 15 min. Sections were incubated with rabbit anti-human vWF antibody coupled with horseradish peroxidase (HRP) (Dako). Positive staining was detected by substrate reaction with diaminobenzidine. Sections were counterstained with Gill's hematoxylin and mounted in Permount (Fisher). […] Capillary density was determined by counting the number of vWF-positive capillaries per high power field (HPF, ×200). The proliferative and apoptotic indices of tumor cells within areas of viable tumor were estimated from the percentage of cells scored under a light microscope at 400-fold magnification. A minimum of 2000 cells were counted in each animal. # indicates standard error.

B16BL6 cells = test: FGF-induced proliferation of B16BL6 cells in vitro; assay type: cell-based
B16BL6 melanoma [3] = test: Primary tumor growth of B16BL6 melanoma in mice treated with heparinases; assay type: in vivo
Excerpt: Heparinases I and III, which have very distinct substrate specificities for cleaving HLGAGs, were employed as tools to investigate the role of HLGAGs in tumor growth and metastasis. While heparinase I cleaves at the highly sulfated regions of HLGAGs, heparinase III only cleaves at the under-sulfated regions of the polysaccharide chain, thereby rendering these enzymes powerful tools to investigate in vivo and in vitro roles of HLGAGs, in development, morphogenesis, angiogenesis etc. To examine the roles of HLGAGs in tumor growth and metastasis, we used B16BL6 melanoma as a model system and treated tumor-bearing mice with either heparinases I or III to investigate both primary tumor growth as well as tumor metastasis. Consistent with the current paradigm, heparinase I accelerated tumor growth (FIG. 8). At a dosage of 0.5 mg/kg/day of heparinase I, tumor growth was increased by about 39%. […] Inhibition of primary tumor growth by heparinase III was first observed at 2 mg/kg per day. Tumor growth was inhibited by 73% at 12 mg/kg per day, the maximum dosage tested in the study (FIG. 8).
Mice, 15 days after tumor implantation with B16BL6 melanoma, were examined. 4×10^5 log growth phase B16BL6 melanoma cells in 0.1 ml PBS were injected to the flank of C57BL/6 mice on day 1. Daily injection of 0.1 ml of PBS, heat inactivated hep III or active heparinase III (2 mg/ml, recombinantly expressed, purified, buffer exchanged with PBS, and concentrated) started at the day 4 and continued throughout the experiment. At day 7, osmotic pumps (100 μl capacity delivering at 0.5 μl per hour) containing PBS or 3 mg/ml hep III were implanted subcutaneously at a place remote from the tumor site. Mice were sacrificed at day 15.
FIG. 8 depicts the tumor volume of the tumors isolated from the mice described above. Tumor volume was measured daily after day 7 with a caliper and calculated with the formula [volume=0.52×(width)^2×(length)].

B1: heparinase III: HLGAG degrading enzyme from Flavobacterium heparinum (EC 4.2.2.8), SEQ ID NO:2; cleaves heparan sulfate (protein, listed as Pedobacter heparinus)
chain: MTTKIFKRIIVFAVIALSSGNILAQSSSITRKDFDHINLEYSGLEKVNKAVAAGNYDDAAKALLAYYREKSKAREPDFSNAEKPADIRQPIDKVTREMADKALVHQFQPHKGYGYFDYGKDINWQMWPVKDNEVRWQLHRVKWWQAMALVYHATGDEKYAREWVYQYSDWARKNPLGLSQDNDKFVWRPLEVSDRVQSLPPTFSLFVNSPAFTPAFLMEFLNSYHQQADYLSTHYAEQGNHRLFEAQRNLFAGVSFPEFKDSPRWRQTGISVLNTEIKKQVYADGMQFELSPIYHVAAIDIFLKAYGSAKRVNLEKEFPQSYVQTVENMIMALISISLPDYNTPMFGDSWITDKNFRMAQFASWARVFPANQAIKYFATDGKQGKAPNFLSKALSNAGFYTFRSGWDKNATVMVLKASPPGEFHAQPDNGTFELFIKGRNFTPDAGVFVYSGDEAIMKLRNWYRQTRIHSTLTLDNQNMVITKARQNKWETGNNLDVLTYTNPSYPNLDHQRSVLFINKKYFLVIDRAIGEATGNLGVHWQLKEDSNPVFDKTKNRVYTTYRDGNNLMIQSLNADRTSLNEEEGKVSYVYNKELKRPAFVFEKPKKNAGTQNFVSIVYPYDGQKAPEISIRENKGNDFEKGKLNLTLTINGKQQLVLVP
- level of activated Erk-1, 2 in primary tumor (Erk-1, 2): lower level of activated Erk-1, 2
- LLC tumor growth [1]: inhibition in tumor growth
- phosphorylation of FGFR1 in primary tumor (FGFR1): inhibited phosphorylation of FGFR1
- apoptosis in tumor samples, enzyme treated tumors (B16BL6 melanoma [2]): increased apoptosis
- FGF-induced proliferation of B16BL6 cells (B16BL6 cells): inhibit FGF-induced proliferation
- inhibition of tumor growth (B16BL6 melanoma [3]; 12 mg/kg per day, maximum dosage tested): 73%
- dosage at which inhibition of primary tumor growth was first observed (B16BL6 melanoma [3]; mouse, in vivo): 2 mg/kg per day
- primary tumor growth (B16BL6 melanoma [3]; nude mice and C57BL/6 mice, subcutaneous injections): significant inhibition in primary tumor growth
